From US20040038894A1, “Compounds for modulating cell negative regulations and biological applications thereof” (INSTITUT NATIONAL DE LA SANTE ET DE LA RECHERCHE MEDICALE …, priority 1996, published 2004)
Where a SMILES comes first, the peptide text is derived from it. Where no end group is shown, it is not given here. [ ]: non-standard residue; d: D form. The star is where a group is joined. Biotin = O=C1N[C@H]2[C@H](CS[C@H]2CCCCC(=O)*)N1; pY = N[C@@H](Cc1ccc(OP(=O)(O)O)cc1)C(=O)O

Experiments:
[1] = biological target: T1, GST-SHP-1.SH2(N) (Mus musculus, UniProt P29351); test: Surface plasmon resonance (BIAcore), SHP-1 N-SH2 domain; format: binding, murine
T1 construct: recombinant fusion proteins corresponding to the isolated N- and C-SH2 domains of SHP-1; made in house; host or cells: E. coli DH5α
T1 sequence (P29351 4-100 limits assumed): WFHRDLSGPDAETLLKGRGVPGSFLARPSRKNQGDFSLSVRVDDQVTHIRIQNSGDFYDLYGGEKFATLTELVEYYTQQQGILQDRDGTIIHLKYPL
Procedure: (§1) Fusion proteins and surface plasmon resonance analysis. Surface plasmon resonance (SPR) measurements were performed on a BIAcore™ (Pharmacia). The GST-SHP-1.SH2(NC), GST-SHP-1.SH2(N), GST-SHP-1.SH2(C), GST-SHIP.SH2 fusion proteins generated from the murine phosphatase cDNA, were purified from DH5α lysates. Briefly, overnight culture at 37° C. in LB medium containing 50 μg/ml ampicillin was diluted 1/10 in fresh medium, and incubated until the absorbance at 600 nm reaches 1-2. At that point, IPTG was added (1 mM), and incubation continued for an additional 4 hours at 37° C. After centrifugation, bacteria pellet was resuspended in TENGN buffer (50 mM Tris pH 8, 1 mM EDTA, 10% glycerol, 1% NP40, 1 mM DTT, 1 mM PMSF, 10 μg/ml aprotinin and 10 μg/ml leupeptine). Bacteria were lysed by sonication. After centrifugation, supernatant was incubated with Glutathione-Sepharose 4B beads (Pharmacia) overnight at 4° C. with slow shaking. After 3 washes with 50 mM Tris pH 8, elution of the fusion protein was carried out using 50 mM Tris pH 8 supplemented with 10 mM reduced glutathione. Before their use in BIAcore™ experiments, fusion proteins were dialyzed in HBS buffer (10 mM HEPES, 150 mM NaCl, 3.4 mM EDTA). Protein purity was assessed by 12.5% SDS-PAGE, and Coomassie blue staining. The running buffer used in all BIAcore™ experiments consisted of HBS buffer supplemented with 0.05% surfactant P20. For preparation of microchips coated with phosphorylated peptides, immunopure streptavidine (Sigma) was first immobilized onto CMS-sensorchip. Then, biotinylated peptides were injected, and their binding to streptavidine-coated microchips was assessed using anti-phosphotyrosine 4G10 mAb (UHI).
(§2) The measurement of phosphorylated p58.2 peptide binding to GST-SHP-1.SH2(N) and GST-SHP-1.SH2(C) fusion proteins was at a constant 5 μl/min flow rate. In the representative experiment of which results are reported in the above table I, 130 and 160 RU of respectively p58.2.1 and p58.2.2 peptides were immobilized on microchips. The regeneration was performed using HBS buffer supplemented with 0.03% SDS. Results are expressed as corrected resonance units (CRU) corresponding to the raw RU values subtracted from background RU value due to the injection medium. […] koff and kon were calculated from three independent measurements using the BLAevaluation 2.0 software. Kd was calculated from koff/kon.

[2] = biological target: T2, GST-SHP-1.SH2(C) (Mus musculus, UniProt P29351); test: Surface plasmon resonance (BIAcore), SHP-1 C-SH2 domain; format: binding, murine; settings: phosphorylated peptide immobilized; 5 μl/min
T2 construct: recombinant fusion proteins corresponding to the isolated N- and C-SH2 domains of SHP-1; made in house; host or cells: E. coli DH5α
T2 sequence (P29351 110-213 limits assumed): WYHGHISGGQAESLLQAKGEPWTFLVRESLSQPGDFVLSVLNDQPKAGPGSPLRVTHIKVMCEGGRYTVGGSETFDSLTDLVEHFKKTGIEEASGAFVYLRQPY
Procedure: as §1, §2

[3] = biological target: phosphorylated NKG2A C-term peptide (C-terminal ITIM) (human); test: SPR (BIAcore), 25 RU phosphopeptide on streptavidin chip, GST fusion injected
[4] = biological target: phosphorylated NKG2A N-term peptide (N-terminal ITIM) (human); test: as above
[5] = biological target: phosphorylated NKG2A N-term peptide (N-terminal ITIM) (human); test: SPR (BIAcore); lower end of the range, tied by Table 4 to GST-SHP-2.SH2(N+C) and the N-terminal ITIM (1.38)
[6] = biological target: T3, SHP-1 protein tyrosine phosphatase from RBL-2H3 cell lysates (rat (cell line RBL-2H3), UniProt P81718 1-613); test: cell lysate adsorption to peptide beads, immunoblot (RBL-2H3)
T3 construct: Detected by immunoblot with anti-SHP-1 mAb

[7] = biological target: T4, SHP-2 protein tyrosine phosphatase from RBL-2H3 cell lysates (rat (cell line RBL-2H3), UniProt P41499 2-593); test: as above
T4 construct: Detected by immunoblot with anti-SHP-2 mAb
T4 sequence (looked up): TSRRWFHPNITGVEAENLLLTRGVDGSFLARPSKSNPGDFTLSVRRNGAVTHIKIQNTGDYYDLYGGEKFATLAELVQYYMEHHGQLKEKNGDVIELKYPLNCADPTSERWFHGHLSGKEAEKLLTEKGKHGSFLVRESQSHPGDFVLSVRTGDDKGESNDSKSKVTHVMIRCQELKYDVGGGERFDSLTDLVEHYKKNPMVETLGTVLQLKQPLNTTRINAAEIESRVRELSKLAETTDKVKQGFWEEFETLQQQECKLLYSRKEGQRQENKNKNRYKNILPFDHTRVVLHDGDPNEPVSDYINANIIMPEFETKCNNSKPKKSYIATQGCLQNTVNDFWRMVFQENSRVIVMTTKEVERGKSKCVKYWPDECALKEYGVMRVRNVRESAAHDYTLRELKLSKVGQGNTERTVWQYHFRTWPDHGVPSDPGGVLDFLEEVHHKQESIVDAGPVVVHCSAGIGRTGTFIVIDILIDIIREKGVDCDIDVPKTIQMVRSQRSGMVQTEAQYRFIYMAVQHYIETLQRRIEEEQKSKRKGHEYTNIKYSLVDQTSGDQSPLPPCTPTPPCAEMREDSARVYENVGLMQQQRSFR

[8] = biological target: T5, GST-SHIP.SH2 fusion protein (murine, UniProt Q9ES52 8-104); test: SPR (BIAcore) with recombinant GST fusion protein
T5 construct: also called SH2 domain of SHIP; not shown: Glutathione S-transferase (GST) fusion partner
T5 sequence (looked up): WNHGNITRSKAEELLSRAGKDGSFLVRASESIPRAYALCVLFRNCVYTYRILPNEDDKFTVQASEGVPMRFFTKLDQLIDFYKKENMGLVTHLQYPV
Procedure: as §1, with “Before their use in BIAcore™ experiments, fusion proteins were dialyzed in HBS buffer (10 mM HEPES, 150 mM NaCl, 3.4 mM EDTA).” left out, “The running buffer used in all BIAcore™ experiments consisted of HBS buffer supplemented with 0.05% surfactant P20. For preparation of microchips coated with phosphorylated peptides, immunopure streptavidine (Sigma) was first immobilized onto CMS-sensorchip.” left out

[9] = biological target: T6, SHIP polyinositol phosphatase from RBL-2H3 cell lysates (rat (cell line RBL-2H3), UniProt P97573 1-1190, limits assumed); test: cell lysate adsorption to peptide beads, immunoblot (RBL-2H3), FIG. 15A
T6 construct: Detected by immunoblot with anti-SHIP antiserum
T6 sequence (looked up): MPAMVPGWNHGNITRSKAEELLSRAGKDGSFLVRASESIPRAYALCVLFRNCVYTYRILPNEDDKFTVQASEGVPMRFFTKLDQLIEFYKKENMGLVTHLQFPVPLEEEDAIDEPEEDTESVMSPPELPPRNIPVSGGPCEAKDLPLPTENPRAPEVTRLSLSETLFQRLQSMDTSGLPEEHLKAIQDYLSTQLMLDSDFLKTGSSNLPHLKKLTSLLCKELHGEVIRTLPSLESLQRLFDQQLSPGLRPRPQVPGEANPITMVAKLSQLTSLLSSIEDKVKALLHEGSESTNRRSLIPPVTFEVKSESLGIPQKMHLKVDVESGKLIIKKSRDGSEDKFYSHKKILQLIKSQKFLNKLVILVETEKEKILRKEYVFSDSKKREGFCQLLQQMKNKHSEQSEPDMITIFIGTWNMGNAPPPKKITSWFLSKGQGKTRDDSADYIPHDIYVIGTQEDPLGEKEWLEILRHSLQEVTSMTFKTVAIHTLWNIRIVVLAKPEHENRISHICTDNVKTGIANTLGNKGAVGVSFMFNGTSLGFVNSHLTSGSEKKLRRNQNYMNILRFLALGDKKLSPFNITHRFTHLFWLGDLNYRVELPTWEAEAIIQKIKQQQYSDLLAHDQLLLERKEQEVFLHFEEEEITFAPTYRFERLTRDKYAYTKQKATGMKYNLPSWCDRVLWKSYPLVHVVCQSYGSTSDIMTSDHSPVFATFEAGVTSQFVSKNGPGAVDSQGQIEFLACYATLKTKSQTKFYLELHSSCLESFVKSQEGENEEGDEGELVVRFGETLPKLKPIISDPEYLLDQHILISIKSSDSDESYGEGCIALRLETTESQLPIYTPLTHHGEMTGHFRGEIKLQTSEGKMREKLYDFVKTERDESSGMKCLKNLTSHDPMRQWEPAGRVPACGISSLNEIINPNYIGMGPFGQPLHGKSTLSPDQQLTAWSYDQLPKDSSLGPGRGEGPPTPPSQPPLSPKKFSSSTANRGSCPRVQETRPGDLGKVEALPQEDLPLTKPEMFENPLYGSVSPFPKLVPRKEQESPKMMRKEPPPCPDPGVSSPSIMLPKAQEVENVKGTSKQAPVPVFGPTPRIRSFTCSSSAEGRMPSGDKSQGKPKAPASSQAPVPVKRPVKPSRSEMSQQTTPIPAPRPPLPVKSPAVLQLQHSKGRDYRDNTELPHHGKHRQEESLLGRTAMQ
Procedure: In an attempt to characterize the function of these putative ITIMs, cell lysates were incubated with phosphorylated and nonphosphorylated synthetic peptides corresponding to the N-terminal and the C-terminal I/VxYxxL stretches present in NKG2A intracytoplasmic domain. Cell lysates absorbed to peptides were then assayed by immunoblotting for the presence of the phosphatases known to interact with phosphorylated ITIMs, i.e. the protein tyrosine phosphatases SHP-1 and SHP-2, as well as the polyinositol phosphate phosphatase, SHIP. In parallel, lysates adsorption were performed using control peptides corresponding to ITIMs present in Ig-like ITIM bearing receptors such as human KIRs (p58.2/CD158b, a receptor for HLA-Cw3) and mouse FcγRIIB, as well as in mouse lectin-like ITIM-bearing receptor, such as Ly-49A.
As shown in FIG. 15A (lanes 1 and 2), both N- and C-terminal I/VxYxxL stretches present in NKG2A associate with SHP-1 and SHP-2 in vitro, but no binding to SHIP was detected. Similar patterns of association were obtained using the phosphorylated ITIM peptides of […] and p58.2 KIR (FIG. 15A, lanes 3 to 5). In contrast, FcγRIIB phosphorylated ITIM peptides also associate with SHIP (FIG. 15A, lane 6). No association of phosphatases with nonphosphorylated peptides corresponding to FcγRIIB (FIG. 15A, lane 7) and NKG2A N- and C-terminal I/VxYxxL stretches was detected. When nonphosphorylated and phosphorylated peptides were used to adsorb lysates prepared from ³⁵S methionine/cysteine-labeled cells, only two bands around 64 and 68 kDa selectively associate with both phosphorylated NKG2A N- and C-terminal I/VxYxxL stretches, as compared to nonphosphorylated ones (FIG. 15B). The 64 and 68 kDa proteins which bind to phosphorylated NKG2A peptides correspond to SHP-1 and SHP-2 apparent molecular weight respectively, supporting the immunoblotting results. Therefore, our results define the two NKG2A I/VxYxxL stretches as ITIMs which appear to function similarly to other ITIMs present in inhibitory receptors for MHC class I molecules, i.e. KIRs and Ly-49 molecules. Using recombinant soluble tandem SH2 domains of SHP-1 and SHP-2, we confirmed by surface plasmon resonance that both NKG2A ITIM phosphopeptides directly associate with the SH2 domains of SHP-1 and SHP-2, but not with the SH2 domain of SHIP (FIG. 16).

[10] = phosphorylated peptide immobilized, 5 μl/min

T3 sequence (P81718 whole entry): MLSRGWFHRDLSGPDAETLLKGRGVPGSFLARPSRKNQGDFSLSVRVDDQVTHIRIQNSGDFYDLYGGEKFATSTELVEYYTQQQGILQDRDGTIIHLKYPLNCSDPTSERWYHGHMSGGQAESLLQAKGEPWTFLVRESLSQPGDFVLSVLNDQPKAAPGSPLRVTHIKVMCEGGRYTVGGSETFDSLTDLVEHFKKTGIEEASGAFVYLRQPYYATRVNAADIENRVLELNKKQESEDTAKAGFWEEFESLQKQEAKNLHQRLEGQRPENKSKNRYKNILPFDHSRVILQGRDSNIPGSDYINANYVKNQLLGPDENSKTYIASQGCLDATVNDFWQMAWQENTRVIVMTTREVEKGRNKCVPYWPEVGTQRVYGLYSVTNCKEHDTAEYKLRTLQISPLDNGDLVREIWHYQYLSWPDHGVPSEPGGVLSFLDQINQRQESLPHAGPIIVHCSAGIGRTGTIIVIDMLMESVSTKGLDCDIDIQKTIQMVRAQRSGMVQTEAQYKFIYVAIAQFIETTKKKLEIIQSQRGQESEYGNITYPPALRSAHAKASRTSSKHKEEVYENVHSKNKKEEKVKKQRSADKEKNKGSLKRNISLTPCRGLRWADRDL

CC(C)C[C@H](NC(=O)[C@H](CCC(N)=O)NC(=O)[C@H](C)NC(=O)[C@H](Cc1ccc(OP(=O)(O)O)cc1)NC(=O)[C@@H](NC(=O)[C@@H](NC(=O)[C@H](CCC(=O)O)NC(=O)[C@H](CCC(N)=O)NC(=O)[C@@H]1CCCN1C(=O)[C@H](CC(=O)O)NC(=O)[C@H](CCC(N)=O)NC(=O)[C@H](CCC(=O)O)NC(=O)[C@H](CC(=O)O)NC(=O)CCCC[C@@H]1SC[C@@H]2NC(=O)N[C@@H]21)C(C)C)[C@@H](C)O)C(=O)N[C@@H](CC(N)=O)C(=O)N[C@@H](Cc1c[nH]cn1)C(=O)O [p58.2.1, DEQDPQEVTY303AQLNH] (HELM PEPTIDE1{[O=C1N[C@H]2[C@H](CS[C@H]2CCCCC(=O)[*:2])N1].D.E.Q.D.P.Q.E.V.T.[O=C([C@H](Cc1ccc(OP(=O)(O)O)cc1)N[*:1])[*:2]].A.Q.L.N.H}$$$$V2.0)
Kd [1]: 423 nM | koff [1, 10]: 0.042 s⁻¹ | kon [1, 10]: 100000 M⁻¹ s⁻¹ | koff [2]: 0.0007 s⁻¹ | kon [2]: 5000 M⁻¹ s⁻¹

GST-SHP-2.SH2(N+C) fusion protein (from UniProt P35235 1-220)
Kd [3]: 1.57 nM | koff [3]: 0.00132 s⁻¹ | kon [3]: 840000 M⁻¹ s⁻¹ | Kd [4]: 1.38 nM | koff [4]: 0.00142 s⁻¹ | kon [4]: 1.03e+06 M⁻¹ s⁻¹ | Kd [5]: 1 to 5 nM

Biotin-DEQDPQEAT[pY]AQLN (also called mutated KIR ITIM peptide) [phosphorylated p58.2.1-V301A peptide]
binding result [6]: no binding | binding result [7]: no binding

B1: phosphorylated p58.2.1 peptide (N-terminal KIR ITIM) (peptide)
peptide: Biotin-DEQDPQEVT[pY]AQLNH
notes: also called p58.183.1; phosphorylated N-terminal KIR ITIM peptide
binding result [8]: no binding | binding result [9]: no binding

B2: phosphorylated FcγRIIB-I260A peptide (peptide)
peptide: Biotin-KTEAENTAT[pY]SLLK
notes: also called FcγRIIB 1-I260A; mutated FcγRIIB ITIM
binding result [6]: no binding | binding result [7]: no binding

Biotin-RPSQRPKTPPTDIIV[pY]TELPNAEP (also called p58.183.2; p58.133.2) [phosphorylated p58.2.2 peptide (C-terminal KIR ITIM)]
binding result [8]: no binding | binding result [9]: no binding
